# Changes are numbered by the printed parent chain.
# T1: rat CDH6 (on cells) (rat, UniProt P55280 54-789)
# T1 construct: also called rCDH6
# T1 sequence: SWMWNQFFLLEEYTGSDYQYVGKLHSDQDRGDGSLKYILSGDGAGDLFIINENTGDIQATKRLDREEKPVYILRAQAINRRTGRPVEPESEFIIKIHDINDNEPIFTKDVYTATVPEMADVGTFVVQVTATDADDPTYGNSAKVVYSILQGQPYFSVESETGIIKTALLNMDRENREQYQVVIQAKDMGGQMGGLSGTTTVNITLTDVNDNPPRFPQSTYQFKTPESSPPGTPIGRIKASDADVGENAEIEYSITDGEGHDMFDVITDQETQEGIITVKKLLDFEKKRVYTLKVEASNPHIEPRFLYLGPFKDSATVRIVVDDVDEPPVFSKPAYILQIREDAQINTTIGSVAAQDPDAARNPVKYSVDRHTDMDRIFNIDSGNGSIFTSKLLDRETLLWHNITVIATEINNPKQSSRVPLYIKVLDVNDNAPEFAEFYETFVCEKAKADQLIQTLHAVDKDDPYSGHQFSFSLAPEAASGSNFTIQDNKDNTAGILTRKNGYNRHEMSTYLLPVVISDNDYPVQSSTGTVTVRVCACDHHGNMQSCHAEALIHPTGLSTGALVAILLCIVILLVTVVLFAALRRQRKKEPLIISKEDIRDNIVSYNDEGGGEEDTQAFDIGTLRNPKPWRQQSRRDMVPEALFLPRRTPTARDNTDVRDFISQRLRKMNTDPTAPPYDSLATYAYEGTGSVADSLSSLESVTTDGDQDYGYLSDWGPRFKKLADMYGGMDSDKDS
# T2: human CDH6 (full-length, on cells) (human, UniProt P55285 54-790)
# T2 construct: also called hCDH6; full-length hCDH6
# T2 sequence: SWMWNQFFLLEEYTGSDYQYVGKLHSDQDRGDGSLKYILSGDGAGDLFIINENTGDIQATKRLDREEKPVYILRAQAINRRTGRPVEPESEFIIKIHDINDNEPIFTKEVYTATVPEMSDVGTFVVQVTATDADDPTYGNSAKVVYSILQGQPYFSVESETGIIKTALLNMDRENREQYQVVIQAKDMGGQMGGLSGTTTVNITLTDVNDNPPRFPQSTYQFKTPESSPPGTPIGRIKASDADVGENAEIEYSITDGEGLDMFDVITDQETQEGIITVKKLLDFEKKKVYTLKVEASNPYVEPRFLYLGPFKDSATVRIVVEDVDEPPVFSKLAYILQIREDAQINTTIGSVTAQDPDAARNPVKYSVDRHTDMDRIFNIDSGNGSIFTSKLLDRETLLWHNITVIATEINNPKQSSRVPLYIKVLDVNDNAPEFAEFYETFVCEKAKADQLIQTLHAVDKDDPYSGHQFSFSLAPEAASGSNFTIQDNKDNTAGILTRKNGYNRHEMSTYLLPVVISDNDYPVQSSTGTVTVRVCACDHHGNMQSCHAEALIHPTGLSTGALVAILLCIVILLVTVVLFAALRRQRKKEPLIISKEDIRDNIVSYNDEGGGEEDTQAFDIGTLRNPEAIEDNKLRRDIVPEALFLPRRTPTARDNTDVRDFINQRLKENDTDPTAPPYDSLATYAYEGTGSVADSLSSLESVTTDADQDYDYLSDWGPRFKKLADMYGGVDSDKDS
# B1: H02L02 antibody (antibody, human IgG1, kappa, V domains shown)
# VH: EVQLVQSGAEVKKPGASVKVSCKASGYTFTRNFMHWVRQAPGQGLEWMGWIYPGDGETEYNQKFQGRVTITADRSTSTAYMELSSLRSEDTAVYFCARGVYGGFAGGYFDFWGQGTLVTVSS
# VL: DIQMTQSPSSLSASVGDRVTITCKASQNIYKNLAWYQQKPGKAPKLLIYDANTLQTGVPSRFSGSGSGSDFTLTISSLQPEDFATYFCQQYYSGWAFGQGTKVEIKR
# notes: Humanized IgG1/kappa (hH02 + hL02); also called humanized hG019 antibody H02L02
# B2: H01L02 antibody (antibody, human IgG1, kappa, V domains shown)
# VH: B1 VH with N61A, R74T, F95Y
# VL: B1 VL
# notes: Humanized IgG1/kappa (hH01 + hL02); also called humanized hG019 antibody H01L02; labeled H01L02
# B3: H02L03 antibody (antibody, human IgG1, kappa, V domains shown)
# VH: B1 VH
# VL: B1 VL with P40L, K42E, A43G, S69T, F87Y
# notes: Humanized IgG1/kappa (hH02 + hL03); also called humanized hG019 antibody H02L03
# B4: H04L02 antibody (antibody, human IgG1, kappa, V domains shown)
# VH: B1 VH with E1Q, V37I, N61A, I70L, F95Y
# VL: B1 VL
# notes: Humanized IgG1/kappa (hH04 + hL02); also called humanized hG019 antibody H04L02
# B5: rG019 antibody (antibody, V domains shown)
# VH: QVQLQQSGAELVKPGSSVKISCKASGYTFTRNFMHWIKQQPGNGLEWIGWIYCGDGETEYNQKFNGKATLTADRSSSTAYMELSRLTSEDSAVYFCARGVYGGFAGGYFDFWGQGVMVTVSS
# VL: DIQMTQSPSLLSASVGDRVTLNCKASQNIYKNLAWYQQKLGEGPKLLIYDANTLQTGIPSRFSGSGSGSDFTLTISSLQPEDVATYFCQQYYSGWAFGGVTNLELKRA
# notes: Rat monoclonal purified from hybridoma; also called rat anti-CDH6 monoclonal antibody clone rG019
# B6: rG055 antibody (antibody, V domains shown)
# VH: EVQLQESGPGLVRPSQSLSLSCSVTDYSITSNYWGWIRRFPGNKMEWMGYITYSGYTSYNPSLQSRISITRDTSKNQFFLQLNSVTAEDTATYYCARSINHGGYSYVVDAWGPGASVTVSS
# VL: DVQMTHSPSYLAASPGESVSISCKTSKNISNYLVWYQQKPGEAYKLLIYSGSTLQSGTPSRFSGSGSGTDFTLTIRSLEPEDFGLYFCQQYYEKPFTFGSGTKLEIKR
# notes: Rat monoclonal purified from hybridoma; also called rat anti-CDH6 monoclonal antibody clone rG055
# B7: rG056 antibody (antibody, V domains shown)
# VH: EVQLQESGPGLVKPSQSLSLTCSVTDYSITTYFWGWIRKFPGNKMEWMGYMSYRGGTSYNPSLKSRISITRDTSKNQFFLQLNSVTTEDTATYYCARCPNYGGHSLVFDYWGQGVMVTVSS
# VL: DVQMTQSPSSLAASPGESVSISCRATKSIGIYLAWYQQKPGKTFKLLIYSGSTLQSGTPSRFSGSGSGTDFTLTIRSLEPEDFGLYFCQQFYENPFTFGSGTKLEIRR
# notes: Rat monoclonal purified from hybridoma; also called rat anti-CDH6 monoclonal antibody clone rG056
# B8: rG061 antibody (antibody, V domains shown)
# VH: EVQLQESGPGLVKPSQSLSLTCSVTGYSITTYYWGWIRKFPGNKMEWMGYISYSGRTSYNPSLKSRMSITRDASKNQFFLQLNSVTTDDTATYYCARSPINHGGYWYFDFWGPGTMVTVSS
# VL: B6 VL with H6Q, T25A, S26T, N28S, V34A, L46V, F87S, F96L
# notes: Rat monoclonal purified from hybridoma; also called rat anti-CDH6 monoclonal antibody clone rG061
# Biological target: T1, rat CDH6 (on cells)
# Experiment: flow cytometry, MFI vs antibody concentration; 293α cells transiently transfected with rCDH6; PE anti-human IgG Fc
# Procedure: The cells were cultured overnight under conditions of 37° C. and 5% CO₂, and thereafter, a cell suspension was prepared. […] Thereafter, the cells were suspended by the addition of each of the 4 humanized hG019 antibodies (clone Nos: H01L02, H02L02, H02L03 and H04L02), which had been prepared in Example 5)-5-3, or human IgG1 control (Calbiochem). The cells were left standing at 4° C. for 1 hour. The cells were washed twice with PBS supplemented with 5% FBS, and then suspended by the addition of anti-human IgG, Fc(gamma) PE goat F(ab′) (Jackson ImmunoResearch Laboratories, Inc.) that had been 500-fold diluted with PBS supplemented with 5% FBS. The cells were left standing at 4° C. for 1 hour. The cells were washed twice with PBS supplemented with 5% FBS, followed by detection using a flow cytometer (Canto II; BD Biosciences). The data was analyzed using FlowJo (Tree Star, Inc.). In FIGS. 6-1 and 6-2, the abscissa depicts antibody concentration, and the ordinate depicts the amount of the antibody bound based on mean fluorescence intensity. As shown in FIGS. 6-1 and 6-2, the human IgG1 control as a negative control binds to none of the CDH6-transfected cells. The 4 humanized hG019 antibodies (clone Nos: H01L02, H02L02, H02L03 and H04L02) bind to human CDH6 and cynomolgus monkey CDH6, but bind to neither mouse nor rat CDH6. None of the antibodies bind to the cells transfected with the empty vector pcDNA3.1 as a negative control.
row,Binder,binding result
1,B1,no binding (tested: about 4 nM)
2,B2,no binding (tested: about 4 nM)
3,B3,no binding (tested: about 4 nM)
4,B4,no binding (tested: about 4 nM)

# Biological target: T2, human CDH6 (full-length, on cells)
# Experiment: flow cytometry; hCDH6-transfected 293T cells (open) vs untransfected control cells (shaded); antibody 10 ng/mL; anti-rat IgG-FITC
# Procedure: The human CDH6-binding activity of the rat anti-CDH6 antibody produced in Example 1)-7 was evaluated by flow cytometry. […] The cells were cultured overnight under conditions of 37° C. and 5% CO₂, and thereafter, a cell suspension was prepared. […] Thereafter, the cells were suspended by the addition of each of the 4 rat anti-CDH6 monoclonal antibodies (clone Nos: rG019, rG055, rG056 and rG061), which had been prepared in Example 1)-7, or rat IgG control (R&D Systems, Inc.) (final concentration: 10 ng/mL). The cells were left standing at 4° C. for 1 hour. The cells were washed twice with PBS supplemented with 5% FBS, and then suspended by the addition of Anti-Rat IgG (whole molecule)-FITC antibody produced in rabbit (Sigma-Aldrich Co. LLC) that had been 50-fold diluted with PBS supplemented with 5% FBS. The cells were left standing at 4° C. for 1 hour. The cells were washed twice with PBS supplemented with 5% FBS, followed by detection using a flow cytometer (FC500; Beckman Coulter, Inc.). The data was analyzed using FlowJo (Tree Star, Inc.). In the histogram of FIG. 1, the abscissa depicts FITC fluorescence intensity indicating the amount of the antibody bound, and the ordinate depicts a cell count. […] The rat IgG control binds to neither of the cells.
row,Binder,binding result
1,B5,binds
2,B6,binds
3,B7,binds
4,B8,binds

# Reference: patent US20200171163A1 (Daiichi Sankyo, published 2020)
